{"source": "paper PMC3052533", "about": "“Amino acid changes within the Bunyamwera virus nucleocapsid protein differentially affect the mRNA transcription and RNA replication activities of assembled ribonucleoprotein templates” (The Journal of General Virology, 2011)", "data": [{"target": "the molecule itself", "assay": "SEC; Superdex S200 column, purified N proteins analysed immediately following purification; elution compared with molecular mass standards; monomer and tetramer peaks", "values": [{"protein": "Bunyamwera virus (BUNV) nucleocapsid (N) protein, wild type (natural protein, nucleocapsid (N) protein of Bunyamwera virus, expressed from plasmid pET-BUN-N (Rodgers et al., 2006); predicted monomer mass 28.8 kDa; also called BUNV N protein; WT) MIELEFHDVAANTSSTFDPEVAYANFKRVHTTGLSYDHIRIFYIKGREIKTSLAKRSEWEVTLNLGGWKITVYNTNFPGNRNNPVPDDGLTLHRLSGFLARYLLEKMLKVSEPEKLIIKSKIINPLAEKNGITWNDGEEVYLSFFPGSEMFLGTFRFYPLAIGIYKVQRKEMEPKYLEKTMRQRYMGLEAATWTVSKLTEVQSALTVVSSLGWKKTNVSAAARDFLAKFGINM", "stoichiometry N": 4}, {"protein": "BUNV N protein R101A (natural protein, Bunyamwera virus, UniProt P16495 1-233, looked up, nucleocapsid (N) protein of Bunyamwera virus, from modified plasmid pET-BUN-N, single alanine substitution) MIELEFHDVAANTSSTFDPEVAYANFKRVHTTGLSYDHIRIFYIKGREIKTSLAKRSEWEVTLNLGGWKITVYNTNFPGNRNNPVPDDGLTLHRLSGFLAAYLLEKMLKVSEPEKLIIKSKIINPLAEKNGITWNDGEEVYLSFFPGSEMFLGTFRFYPLAIGIYKVQRKEMEPKYLEKTMRQRYMGLEAATWTVSKLTEVQSALTVVSSLGWKKTNVSAAARDFLAKFGINM", "binding result": "binds"}, {"protein": "BUNV N protein R40A (natural protein, Bunyamwera virus, UniProt P16495 1-233, looked up, nucleocapsid (N) protein of Bunyamwera virus, from modified plasmid pET-BUN-N, single alanine substitution) MIELEFHDVAANTSSTFDPEVAYANFKRVHTTGLSYDHIAIFYIKGREIKTSLAKRSEWEVTLNLGGWKITVYNTNFPGNRNNPVPDDGLTLHRLSGFLARYLLEKMLKVSEPEKLIIKSKIINPLAEKNGITWNDGEEVYLSFFPGSEMFLGTFRFYPLAIGIYKVQRKEMEPKYLEKTMRQRYMGLEAATWTVSKLTEVQSALTVVSSLGWKKTNVSAAARDFLAKFGINM", "binding result": "binds"}, {"protein": "BUNV N protein K55A (natural protein, Bunyamwera virus, UniProt P16495 1-233, looked up, nucleocapsid (N) protein of Bunyamwera virus, from modified plasmid pET-BUN-N, single alanine substitution) MIELEFHDVAANTSSTFDPEVAYANFKRVHTTGLSYDHIRIFYIKGREIKTSLAARSEWEVTLNLGGWKITVYNTNFPGNRNNPVPDDGLTLHRLSGFLARYLLEKMLKVSEPEKLIIKSKIINPLAEKNGITWNDGEEVYLSFFPGSEMFLGTFRFYPLAIGIYKVQRKEMEPKYLEKTMRQRYMGLEAATWTVSKLTEVQSALTVVSSLGWKKTNVSAAARDFLAKFGINM", "binding result": "binds"}, {"protein": "BUNV N protein K50A (natural protein, Bunyamwera virus, UniProt P16495 1-233, looked up, nucleocapsid (N) protein of Bunyamwera virus, from modified plasmid pET-BUN-N, single alanine substitution) MIELEFHDVAANTSSTFDPEVAYANFKRVHTTGLSYDHIRIFYIKGREIATSLAKRSEWEVTLNLGGWKITVYNTNFPGNRNNPVPDDGLTLHRLSGFLARYLLEKMLKVSEPEKLIIKSKIINPLAEKNGITWNDGEEVYLSFFPGSEMFLGTFRFYPLAIGIYKVQRKEMEPKYLEKTMRQRYMGLEAATWTVSKLTEVQSALTVVSSLGWKKTNVSAAARDFLAKFGINM", "binding result": "binds"}, {"protein": "BUNV N protein K179A (natural protein, Bunyamwera virus, UniProt P16495 1-233, looked up, nucleocapsid (N) protein of Bunyamwera virus, from modified plasmid pET-BUN-N, single alanine substitution) MIELEFHDVAANTSSTFDPEVAYANFKRVHTTGLSYDHIRIFYIKGREIKTSLAKRSEWEVTLNLGGWKITVYNTNFPGNRNNPVPDDGLTLHRLSGFLARYLLEKMLKVSEPEKLIIKSKIINPLAEKNGITWNDGEEVYLSFFPGSEMFLGTFRFYPLAIGIYKVQRKEMEPKYLEATMRQRYMGLEAATWTVSKLTEVQSALTVVSSLGWKKTNVSAAARDFLAKFGINM", "binding result": "binds"}, {"protein": "BUNV N protein R94A (natural protein, Bunyamwera virus, UniProt P16495 1-233, looked up, nucleocapsid (N) protein of Bunyamwera virus, from modified plasmid pET-BUN-N, single alanine substitution; monomers and tetramers equally abundant) MIELEFHDVAANTSSTFDPEVAYANFKRVHTTGLSYDHIRIFYIKGREIKTSLAKRSEWEVTLNLGGWKITVYNTNFPGNRNNPVPDDGLTLHALSGFLARYLLEKMLKVSEPEKLIIKSKIINPLAEKNGITWNDGEEVYLSFFPGSEMFLGTFRFYPLAIGIYKVQRKEMEPKYLEKTMRQRYMGLEAATWTVSKLTEVQSALTVVSSLGWKKTNVSAAARDFLAKFGINM", "stoichiometry N": 4}]}]}
